In patent US7105164B1, “HIV-specific cytotoxic T-cell responses” (priority 1999, dated 2006):
“Also recorded” adds a separate entry of the source.

Target: T1, HLA-A2 on T2 cells (Homo sapiens, UniProt P04439, D140Y/D185E/D98H/E176V/E277Q/G131W/G231S/I119V/I121R/I166T/I218V/L300P/L318F/N151K/N90K/P208A/P217A/Q86G/Q94H/R138H/R169H/T345S)
T1 construct: T2 cell line expressing the HLA-A2 molecules was obtained from Dr Peter Creswell; endogenous in cells; host or cells: T2 cell line (TAP-deficient human cell line)
Assay: in vitro HLA-A2 stabilization (peptide-induced MHC class 1 assembly assay, FACS) on T2 cells
Assay type: cell-based
Details: FIG. 1; for binding to and stabilization of membrane-bound HLA-A2 (shift of fluorescent peak): BB7.2 antibody, FACS
Method: Location of the potential CTL containing motifs of the HIV-1 (LAI) Rev protein has been predicted by the reported peptide-binding motif algorithms. […] The ability of the peptides containing these motifs to bind and stabilize membrane-bound HLA-A2 molecule was assessed using the T2 cell line. The cell line has been well documented to have defective TAP transporter function resulting in the majority of the intracellularly generated peptides being unable to be transported into the endoplasmic reticulum to associate with the newly synthesized HLA class 1 molecules, i.e. HLA-A2 (see references 4, 5). […] Upon interaction with suitable peptides introduced exogenously, the stability of the HLA-A2 molecules can be restored.
T2 cell line expressing the HLA-A2 molecules was obtained from Dr Peter Creswell at the Howard Hughes Research Institute of Yale University. The cells were propagated in Iscove's complete medium (Iscove's medium supplemented with 10% heat-inactivated bovine serum, 120.0 units per ml of penicilin G sodium, 120 μg per ml of streptomycin sulphate, and 0.35 mg per ml of L-glutamine). The ability of individual 8 to 13 mer peptides, prepared as described in Example 1 and identified in Table 1, to bind and modulate the stability of the A2 molecules on T2 cells was determined using a peptide-induced MHC class 1 assembly assay, which was modified from a protocol described by Yuping Deng et al. (ref. 6).
In essence, 1×10^6 T2 cells were incubated with a specified concentration of the test peptide in 250.0 μl of Iscove's serum-free medium (Iscove's medium supplemented with 120.0 units per ml of penicillin G sodium, 120.0 μg per ml of streptomycin sulphate and 0.35 mg per ml of L-glutamine) in a sterile Eppendorf tube at 37° C. overnight. The cells were then incubated on ice for 30 min before 1.0 ml of Iscove's complete medium supplemented with 5.0 μg per ml of brefeldin A, 12.5 μg per ml of anisomycin and 5.0 μg per ml of cyclohexamide was added. The samples were then incubated for 3.0 hr in a 37° C. CO2 incubator.
In the presence of the drugs, further protein synthesis and intracellular delivery of HLA-A2 molecules to the cell surface are inhibited, and de-stabilization of the conformation of the membrane-bound class 1 molecules at the physiological temperature occurs.
The cells were then washed twice with ice-cold PBA (a buffer containing 0.9% sodium chloride, 0.5% bovine serum albumin and 0.02% sodium azide). 100.0 μl of PBA containing 5.0 μg of a conformation-sensitive HLA-A2-specific mouse monoclonal antibody, BB7.2 (ref. 7), was then added to each test sample. The reaction was allowed to take place on ice for 45 min. The cells were then washed three times with ice-cold PBA.
The binding of BB7.2 was then detected by adding […] containing 1.0 μg of goat anti-mouse IgG F(ab′) fluorescein (FITC) conjugate to each cell sample. After 30 min incubation on ice, the cells were washed twice with PBA, and twice again with PBS, pH 7.2. Cells were fixed immediately after washing was completed by adding 100.0 μl of 1.0% paraformaldehyde to the cell pellet. The cells were gently resuspended and were FACS analysed usually within three days after the experiments were completed.
The fluorescence index, which is an indicator for increased density of membrane-bound A2 molecules, was calculated by dividing the mean fluorescence of an experimental sample (peptide treated T2 cells) by the mean fluorescence of the control sample (T2 cells not treated with peptide).

Sequence	binding to and stabilization of membrane-bound HLA-A2 (shift of fluorescent peak)	order of potency by comparison of fluorescence indices
YLGRSAEPV (Human immunodeficiency virus type 1) [CLP-177]	bound to HLA-A2 on T2 cells; also recorded: able to bind and stabilize; also recorded: capable of binding to HLA-A2 on T2 cells	CLP-177>CLP-72>CLP-178>CLP-182
PLQLPPLERLIL [CLP-182]	bound to HLA-A2 on T2 cells; also recorded: able to bind and stabilize; also recorded: capable of binding to HLA-A2 on T2 cells	CLP-177>CLP-72>CLP-178>CLP-182
ILVESPAVL (Human immunodeficiency virus type 1) [CLP-72]	bound to HLA-A2 on T2 cells; also recorded: able to bind and stabilize; also recorded: capable of binding to HLA-A2 on T2 cells	CLP-177>CLP-72>CLP-178>CLP-182
YLGRSAEPVPL (Human immunodeficiency virus type 1) [CLP-178]	bound to HLA-A2 on T2 cells; also recorded: able to bind and stabilize; also recorded: capable of binding to HLA-A2 on T2 cells	CLP-177>CLP-72>CLP-178>CLP-182
